Test results: patent publication US20080058263A1 (published 2008)

T1: VEGFR-3-Fc (UniProt P35916 25-328)
T1 construct: domain: first three Ig domains; conditioned supernatant of 293T cells; also called VEGFR-3-Fc fusion protein; not shown: Fc fragment of the pIg vector
T1 sequence (looked up): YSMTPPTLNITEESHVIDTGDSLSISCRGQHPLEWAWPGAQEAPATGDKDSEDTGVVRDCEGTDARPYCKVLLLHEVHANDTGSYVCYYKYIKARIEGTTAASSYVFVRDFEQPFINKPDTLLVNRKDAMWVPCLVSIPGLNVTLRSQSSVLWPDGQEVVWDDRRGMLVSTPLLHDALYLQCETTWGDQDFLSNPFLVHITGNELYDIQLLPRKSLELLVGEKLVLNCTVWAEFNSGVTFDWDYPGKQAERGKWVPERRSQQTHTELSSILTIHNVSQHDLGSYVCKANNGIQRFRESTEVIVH


Columns and labels:
Assay in all cases: receptor-Fc IP
VEGFR-3-Fc = target: T1, VEGFR-3-Fc
Method in brief: (§1)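 fusion protein at 400 ng/ml in an IP mix (PBS, 1.5% BSA, 0.06% Tween 20, 3 μg/ml heparin) was combined with sample supernatant at a 1:2 ratio. Bound ligand captured by immunoprecipitation with pentahistidine antibody.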

VEGFR-1-Fc = target: T2, VEGFR-1-Fc (UniProt P17948 27-338)
T2 construct: domain: first three Ig domains; expressed in Drosophila S2 cells, purified on Protein A sepharose; also called VEGFR-1-Fc fusion protein; not shown: Fc fragment from the Signal-pIgPlus vector
Method in brief: as §1

VEGFR-2-Fc = target: T3, VEGFR-2-Fc (UniProt P35968 20-322)
T3 construct: domain: first 3 Ig domains; conditioned supernatant of 293T cells; also called VEGFR-2-Fc fusion protein; not shown: Fc fragment of the pIg vector
Method in brief: as §1

T3 sequence (P35968 20-322): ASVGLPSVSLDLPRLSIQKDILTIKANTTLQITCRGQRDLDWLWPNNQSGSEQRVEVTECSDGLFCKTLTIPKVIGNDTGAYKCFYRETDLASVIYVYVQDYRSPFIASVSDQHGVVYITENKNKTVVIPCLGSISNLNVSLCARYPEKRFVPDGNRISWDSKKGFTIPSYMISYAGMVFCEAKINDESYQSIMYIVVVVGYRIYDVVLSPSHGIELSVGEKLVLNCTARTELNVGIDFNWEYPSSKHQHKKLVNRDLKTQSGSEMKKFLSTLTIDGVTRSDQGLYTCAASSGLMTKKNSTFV
T2 sequence (P17948 27-338): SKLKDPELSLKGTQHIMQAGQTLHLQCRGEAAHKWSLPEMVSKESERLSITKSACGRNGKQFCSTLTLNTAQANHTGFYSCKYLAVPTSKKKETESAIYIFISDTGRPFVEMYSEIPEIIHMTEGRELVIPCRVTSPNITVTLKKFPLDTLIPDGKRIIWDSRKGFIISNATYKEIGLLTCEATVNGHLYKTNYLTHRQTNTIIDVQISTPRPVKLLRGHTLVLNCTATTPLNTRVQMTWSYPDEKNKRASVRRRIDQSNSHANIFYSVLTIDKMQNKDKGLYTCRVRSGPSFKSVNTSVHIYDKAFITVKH

Binder | binding result (VEGFR-3-Fc) | binding result (VEGFR-1-Fc) | binding result (VEGFR-2-Fc)
62-4 (ligand) GQNHHEVVKFMDVYQRSYCHPREVCIDVGKEFGVATNTFFKPPCVSVYRCGGCCNSEGLQCMNTSTSYLSKTLFEIKPHQGQHIGEMSFLQHNKCECRPKKD | no binding | no binding | no binding
61-2 (ligand) GQNHHEVVKFMDVYQRSYCHPREVCIDVGKEYPDEIEYIFKPSCVPLMRCGGCCNDEGLECMNTSTSYLSKTLFEIKPHQGQHIGEMSFLQHNKCECRPKKD | no binding | no binding | no binding
61-10 (ligand) GQNHHEVVKFMDVYQRSYCHPREVCIDVGKEYPDEIEYIFKPSCVPLMRCGGCCNDEGLECMNTSTSYLSKTLFEITVPLSQGPKPVTISFLQHNKCECRPKKD | no binding | no binding | no binding
61-16 (ligand) GQNHHEVVKFMDVYQRSYCHPREVCIDVGKEYPDEIEYIFKPSCVPLMRCGGCCNSEGLQCMNTSTSYLSKTLFEITVPLSQGPKPVTISFANHTSCRCMSKLD | no binding | no binding | no binding
61-12 (ligand) GQNHHEVVKFMDVYQRSYCHPREVCIDVGKEYPDEIEYIFKPSCVPLMRCGGCCNSEGLQCMNTSTSYLSKTLFEITVPLSQGPKPVTISFLQHNKCECRPKKD | no binding | no binding | no binding

Next, values leading:

binding result (VEGFR-3-Fc) | binding result (VEGFR-1-Fc) | binding result (VEGFR-2-Fc) | Binder
no binding | no binding | no binding | 62-9 (ligand) GQNHHEVVKFMDVYQRSYCHPREVCIDVGKEFGVATNTFFKPPCVSVYRCGGCCNDEGLECVPTEESNITMQIMRITVPLSQGPKPVTISFLQHNKCECRPKKD
no binding | no binding | no binding | 63-5 (ligand) GQNHHEVVKFMDVYQRSYCHPREVCIDVGKEYPDEIEYIFKPPCVSVYRCGGCCNDEGLECVPTEESNITMQIMRIKPHQGQHIGEMSFANHTSCRCMSKLD
no binding | no binding | no binding | 62-3 (ligand) GQNHHEVVKFMDVYQRSYCHPREVCIDVGKEFGVATNTFFKPPCVSVYRCGGCCNSEGLQCVPTEESNITMQIMRIKPHQGQHIGEMSFLQHNKCECRPKKD
no binding | no binding | no binding | 62-5 (ligand) GQNHHEVVKFMDVYQRSYCHPREVCIDVGKEFGVATNTFFKPPCVSVYRCGGCCNDEGLECVPTEESNITMQIMRIKPHQGQHIGEMSFANHTSCRCMSKLD
no binding | no binding | no binding | 62-7 (ligand) GQNHHEVVKFMDVYQRSYCHPREVCIDVGKEFGVATNTFFKPPCVSVYRCGGCCNSEGLQCVPTEESNITMQIMRIKPHQGQHIGEMSFANHTSCRCMSKLD
no binding | no binding | no binding | 22-1 (ligand) AHYNTEILKSIDNEWRKTQCMPREVCIDVGKEFGVATNTFFKPPCVSVYRCGGCCNDEGLECVPTEESNITMQIMRIKPHQGQHIGEMSFLQHNKCECRPKKDLVFEQKLISEEDLNSAVDHHHHHH
